Assay results as given in PMC8244358.

Experiments:
[1] = molecular target: Cfl1 (Cif-like epoxide hydrolase 1) from Burkholderia cenocepacia strain J2315 / K56-2 (Burkholderia cenocepacia strain K56-2 (identical to strain J2315)); assay: crystal structure; hanging drop vapor diffusion; X-ray, 2.2 Å; molecular replacement with a Cif monomer
[2] = molecular target: Cfl2 (Cif-like epoxide hydrolase 2) from Burkholderia cenocepacia strain HI2424 (Burkholderia cenocepacia strain HI2424); assay: as above

Substance | stoichiometry N [1] | stoichiometry N [2]
Cfl1 (Cif-like epoxide hydrolase 1) from Burkholderia cenocepacia strain J2315 / K56-2 (enzyme) | 8 | 
Cfl2 (Cif-like epoxide hydrolase 2) from Burkholderia cenocepacia strain HI2424 (enzyme) |  | 10
